Where “and” joins values, the source holds several entries; their conditions need not be identical. Identical values can stand only once.
Key:
[1] = target: the molecule itself; experiment: crystal structure
[2] = target: the molecule itself; experiment: SEC-MALS
[3] = target: the molecule itself; experiment: cell-based or functional assay
[4] = target: the molecule itself; experiment: cross-linking
[5] = target: the molecule itself; experiment: AUC

B1: S. cerevisiae short Mgm1 (s-Mgm1), truncated version, residues 184-881 (domain or fragment, UniProt P32266 184-881, looked up)
chain: MLNLTKQMIEIRTILNKVDSSSAHLTLPSIVVIGSQSSGKSSVLESIVGREFLPKGSNMVTRRPIELTLVNTPNSNNVTADFPSMRLYNIKDFKEVKRMLMELNMAVPTSEAVSEEPIQLTIKSSRVPDLSLVDLPGYIQVEAADQPIELKTKIRDLCEKYLTAPNIILAISAADVDLANSSALKASKAADPKGLRTIGVITKLDLVDPEKARSILNNKKYPLSMGYVGVITKTPSSINRKHLGLFGEAPSSSLSGIFSKGQHGQSSGEENTNGLKQIVSHQFEKAYFKENKKYFTNCQVSTKKLREKLIKILEISMSNALEPTSTLIQQELDDTSYLFKVEFNDRHLTPKSYLLNNIDVLKLGIKEFQEKFHRNELKSILRAELDQKVLDVLATRYWKDDNLQDLSSSKLESDTDMLYWHKKLELASSGLTKMGIGRLSTMLTTNAILKELDNILESTQLKNHELIKDLVSNTAINVLNSKYYSTADQVENCIKPFKYEIDLEERDWSLARQHSINLIKEELRQCNSRYQAIKNAVGSKKLANVMGYLENESNLQKETLGMSKLLLERGSEAIFLDKRCKVLSFRLKMLKNKCHSTIEKDRCPEVFLSAVSDKLTSTAVLFLNVELLSDFFYNFPIELDRRLTLLGDEQVEMFAKEDPKISRHIELQKRKELLELALEKIDSILVFKKSYKGVSKNL
- stoichiometry N [1]: 3
- stoichiometry N [2]: 2
- stimulation of s-Mgm1 GTPase activity by liposomes with 10% or 20% cardiolipin [3]: 8 fold

B2: HA-tagged s-Mgm1 S397C/E751C mutant (with 4CS mutations C341S, C676S, C709S, C763S) (domain or fragment, S. cerevisiae, UniProt P32266 184-881, looked up)
chain: MLNLTKQMIEIRTILNKVDSSSAHLTLPSIVVIGSQSSGKSSVLESIVGREFLPKGSNMVTRRPIELTLVNTPNSNNVTADFPSMRLYNIKDFKEVKRMLMELNMAVPTSEAVSEEPIQLTIKSSRVPDLSLVDLPGYIQVEAADQPIELKTKIRDLSEKYLTAPNIILAISAADVDLANSSALKASKAADPKGLRTIGVITKLDLVDPEKARCILNNKKYPLSMGYVGVITKTPSSINRKHLGLFGEAPSSSLSGIFSKGQHGQSSGEENTNGLKQIVSHQFEKAYFKENKKYFTNCQVSTKKLREKLIKILEISMSNALEPTSTLIQQELDDTSYLFKVEFNDRHLTPKSYLLNNIDVLKLGIKEFQEKFHRNELKSILRAELDQKVLDVLATRYWKDDNLQDLSSSKLESDTDMLYWHKKLELASSGLTKMGIGRLSTMLTTNAILKELDNILESTQLKNHELIKDLVSNTAINVLNSKYYSTADQVENSIKPFKYEIDLEERDWSLARQHSINLIKEELRQSNSRYQAIKNAVGSKKLANVMGYLENESNLQKETLGMSKLLLCRGSEAIFLDKRSKVLSFRLKMLKNKCHSTIEKDRCPEVFLSAVSDKLTSTAVLFLNVELLSDFFYNFPIELDRRLTLLGDEQVEMFAKEDPKISRHIELQKRKELLELALEKIDSILVFKKSYKGVSKNL
- stoichiometry N [4]: 2 and 3

B3: s-Mgm1 R712A/E751A mutant (domain or fragment, S. cerevisiae, UniProt P32266 184-881, looked up)
chain: MLNLTKQMIEIRTILNKVDSSSAHLTLPSIVVIGSQSSGKSSVLESIVGREFLPKGSNMVTRRPIELTLVNTPNSNNVTADFPSMRLYNIKDFKEVKRMLMELNMAVPTSEAVSEEPIQLTIKSSRVPDLSLVDLPGYIQVEAADQPIELKTKIRDLCEKYLTAPNIILAISAADVDLANSSALKASKAADPKGLRTIGVITKLDLVDPEKARSILNNKKYPLSMGYVGVITKTPSSINRKHLGLFGEAPSSSLSGIFSKGQHGQSSGEENTNGLKQIVSHQFEKAYFKENKKYFTNCQVSTKKLREKLIKILEISMSNALEPTSTLIQQELDDTSYLFKVEFNDRHLTPKSYLLNNIDVLKLGIKEFQEKFHRNELKSILRAELDQKVLDVLATRYWKDDNLQDLSSSKLESDTDMLYWHKKLELASSGLTKMGIGRLSTMLTTNAILKELDNILESTQLKNHELIKDLVSNTAINVLNSKYYSTADQVENCIKPFKYEIDLEERDWSLARQHSINLIKEELRQCNSAYQAIKNAVGSKKLANVMGYLENESNLQKETLGMSKLLLARGSEAIFLDKRCKVLSFRLKMLKNKCHSTIEKDRCPEVFLSAVSDKLTSTAVLFLNVELLSDFFYNFPIELDRRLTLLGDEQVEMFAKEDPKISRHIELQKRKELLELALEKIDSILVFKKSYKGVSKNL
- binding result [5]: binds

From PMC7049166 (Proceedings of the National Academy of Sciences of the …, 2020)
